B1: Pre-mRNA-processing factor 19 (Saccharomyces cerevisiae), P32523 (parent)
chain: MLCAISGKVPRRPVLSPKSRTIFEKSLLEQYVKDTGNDPITNEPLSIEEIVEIVPSAQQASLTESTNSATLKANYSIPNLLTSLQNEWDAIMLENFKLRSTLDSLTKKLSTVMYERDAAKLVAAQLLMEKNEDSKDLPKSSQQAVAITREEFLQGLLQSSRDFVARGKLKAPKWPILKNLELLQAQNYSRNIKTFPYKELNKSMYYDKWVCMCRCEDGALHFTQLKDSKTITTITTPNPRTGGEHPAIISRGPCNRLLLLYPGNQITILDSKTNKVLREIEVDSANEIIYMYGHNEVNTEYFIWADNRGTIGFQSYEDDSQYIVHSAKSDVEYSSGVLHKDSLLLALYSPDGILDVYNLSSPDQASSRFPVDEEAKIKEVKFADNGYWMVVECDQTVVCFDLRKDVGTLAYPTYTIPEFKTGTVTYDIDDSGKNMIAYSNESNSLTIYKFDKKTKNWTKDEESALCLQSDTADFTDMDVVCGDGGIAAILKTNDSFNIVALTP
partner: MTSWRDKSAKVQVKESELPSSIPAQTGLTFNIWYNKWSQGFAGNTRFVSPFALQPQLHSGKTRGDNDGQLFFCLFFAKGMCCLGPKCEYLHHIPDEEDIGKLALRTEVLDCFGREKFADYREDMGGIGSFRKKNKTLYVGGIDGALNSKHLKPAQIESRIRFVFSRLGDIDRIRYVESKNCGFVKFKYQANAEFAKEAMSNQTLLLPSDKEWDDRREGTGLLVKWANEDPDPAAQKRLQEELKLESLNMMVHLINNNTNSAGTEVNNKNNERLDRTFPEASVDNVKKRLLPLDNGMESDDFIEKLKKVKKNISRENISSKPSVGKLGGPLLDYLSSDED

Variants of: B1
Conditions: with cwc2_yeast CWC2, Q12046

effect of a mutation on the interaction	Variant
disrupting interaction	R403A
decreasing interaction	K404A
decreasing interaction	D341A

Continued, variant first:

Variant	effect of a mutation on the interaction
R403A;K404A	disrupting interaction
Y387A	decreasing interaction
